# Source: patent US20200239579A1 (Genmab, published 2020)
# B1: IgG1-516-FEAR (antibody, V domains shown)
# VH: QVQLQESGPGLVKPSDTLSLTCAVSDYSISSNDWWGWIRQPPGKGLEWIGYIYYSGTGYYNPSLKSRVTISIDTSKNQFSLKLNSVTAVDTAVYYCARTRVGARRAFDYWGQGTLVTVSS
# VL: SYVLTQPPSVSVAPGQTARITCGGNNIGSKSVHWYQQKPGQAPVLVVYDDSDRPSGIPERFSGSNSGNTATLTISRVEAGDEADYYCQVWDSSSDHVVFGGGTKLTVL
# Key:
# [1] = target: T1, PDLoneECDHisCtag (human, UniProt Q9NZQ7 19-238); assay: BLI cross-block, second antibody on PDLoneECDHisCtag held by immobilised 632; plain = non-blocking
# T1 construct: Expressed in HEK-293F cells; theoretical molecular weight 29 kDa; also called recombinant human PD-L1 ECD; human PD-L1 (BLI); not shown: C-terminal His-tag; C-tag
# Protocol: (§1) Antibody cross-block testing was performed using biolayer interferometry (BLI) on an Octet HTX instrument (ForteBio). Antibodies (20 μg/ml in 10 mM sodium acetate buffer pH 6.0 (ForteBio)) were immobilized on Amine-Reactive 2nd Generation (AR2G) biosensors (ForteBio) according to the instructions of the manufacturer. After a baseline (50 s) in Sample Diluent (ForteBio), biosensors containing immobilized antibodies were loaded for 500 s with PDLoneECDHisCtag (100 nM or 2.7 μg/ml), after which the association response of a second antibody (10 μg/ml) was followed for 500 s. Biosensors were regenerated by using 3 times 5 s alternating exposures to 10 mM glycine pH 2.5 and Sample Diluent. The experiment was repeated with a new set of second antibodies starting from the baseline step. Each biosensor was used 6 times. The experiment was performed at 30° C. using a shaker speed of 1000 rpm. Data was analyzed using Data Analysis Software v9.0.0.12 (ForteBio). The Y-axis was aligned to the association step and Savitzky-Golay filtering was applied. The average buffer response was subtracted from the association response of the second antibody in order to correct for the dissociation of PDLoneECDHisCtag from the immobilized antibody. The corrected association responses were plotted in a matrix format.
# [2] = target: T1, PDLoneECDHisCtag; assay: BLI cross-block, second antibody on PDLoneECDHisCtag held by immobilised 516; bold = blocking
# Protocol: as §1
# [3] = target: T1, PDLoneECDHisCtag; assay: BLI cross-block, second antibody on PDLoneECDHisCtag held by immobilised 421-LC91S; bold = blocking
# Protocol: as §1
# [4] = target: T1, PDLoneECDHisCtag; assay: BLI cross-block, second antibody on PDLoneECDHisCtag held by immobilised 547; plain = non-blocking
# Protocol: as §1
# [5] = target: T1, PDLoneECDHisCtag; assay: BLI cross-block, second antibody on PDLoneECDHisCtag held by immobilised 476-N101Q-LC33S; plain = non-blocking
# Protocol: as §1
# [6] = target: T1, PDLoneECDHisCtag; assay: BLI cross-block, second antibody on PDLoneECDHisCtag held by immobilised MPDL; bold = blocking
# Protocol: as §1
# [7] = target: T1, PDLoneECDHisCtag; assay: BLI cross-block, second antibody on PDLoneECDHisCtag held by immobilised 511-LC33S; plain = non-blocking
# Protocol: as §1
# T1 sequence (Q9NZQ7 19-238, form in doubt): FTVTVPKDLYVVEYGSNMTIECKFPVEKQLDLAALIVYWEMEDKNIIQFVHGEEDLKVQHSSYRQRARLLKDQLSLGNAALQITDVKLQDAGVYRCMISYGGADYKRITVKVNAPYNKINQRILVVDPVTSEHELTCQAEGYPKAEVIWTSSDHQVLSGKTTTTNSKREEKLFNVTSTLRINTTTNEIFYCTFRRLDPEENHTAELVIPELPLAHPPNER
binder,measurement,setting,value
B1,association response of the second antibody,[1],0.6 nm
same,association response of the second antibody,[2],0 nm
same,association response of the second antibody,[3],0 nm
same,association response of the second antibody,[4],0.7 nm
same,association response of the second antibody,[5],0.7 nm
same,association response of the second antibody,[6],0 nm
same,association response of the second antibody,[7],0.6 nm
